According to publication PMC5261807 (2017):
Non-standard residues stand in square brackets, D forms with d. Primed or numbered codes have the meaning given here. No end group written: not given here. Me2a″ = asymmetric dimethylarginine (Rme2a); Me2s″ = symmetric dimethylarginine (Rme2s); Arg(Me2a) = CN(C)C(=N)NCCC[C@H](N)C(=O)O; Lys(Me3) = C[N+](C)(C)CCCC[C@H](N)C(=O)O; Arg(Me2s) = CN=C(NC)NCCC[C@H](N)C(=O)O; pT = C[C@@H](OP(=O)(O)O)[C@H](N)C(=O)O; Me2a = asymmetric dimethyl (on Arg); Lys(Me2) = CN(C)CCCC[C@H](N)C(=O)O; Me2s = symmetric dimethyl (on Arg); pS = N[C@@H](COP(=O)(O)O)C(=O)O; Lys(Me) = CNCCCC[C@H](N)C(=O)O; Me3″ = trimethyl lysine (Kme3); Me3 = trimethyl (on Lys); Me2 = dimethyl (on Lys)

T1: Bdf1 bromodomain 1 (GST-tagged, WT) (Saccharomyces cerevisiae (strain ATCC …, UniProt P35817))
T1 chain: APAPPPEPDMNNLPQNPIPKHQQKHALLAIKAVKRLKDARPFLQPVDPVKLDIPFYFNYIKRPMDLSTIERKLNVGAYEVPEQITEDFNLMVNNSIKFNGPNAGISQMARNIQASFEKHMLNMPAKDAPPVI

T2: Bdf1 bromodomain 2 (GST-tagged, WT) (Saccharomyces cerevisiae (strain ATCC …, UniProt P35817))
T2 chain: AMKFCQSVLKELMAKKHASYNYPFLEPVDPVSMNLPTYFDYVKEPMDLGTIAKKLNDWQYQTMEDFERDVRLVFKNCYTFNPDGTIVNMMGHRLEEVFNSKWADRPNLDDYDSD

B1: c-myc tag (peptide)
chain: EQKLISEEDLA
modifications: histone peptides carry modifications given inline in the sequence and in columns 4-7 (Kac, Kme1/2/3, Rme2a/s, Cit, pS/pT); N-terminus free or acetylated

Target: T1, Bdf1 bromodomain 1 (GST-tagged, WT)
Test: histone peptide array probed with recombinant GST-bromodomain, signal normalised to myc peptide control

Row | Binder | binding score
1 | ARTKQTARKSTGGKAPRKQ (A R T K Q T A R Kme1 pS T G G K A P R K Q) | 0
2 | ARTKQTARKSTGGKAPRKQ (A R T Kme2 Q T A Rme2a Kme2 S T G G K A P R K Q) | 0
3 | ARTKQTARKSTGGKAPRKQ (A Rme2s T Kme2 Q T A Rme2a Kme3 S T G G K A P R K Q) | 0
4 | SGRGKGGKGLGKGGAKRHR (pS G R G K G G K G L G K G G A K R H R) | 0
5 | ARTKQTARKSTGGKAPRKQ (A Rme2a T Kme3 Q T A Rme2s Kme3 S T G G K A P R K Q) | 0
6 | ARTKQTARKSTGGKAPRKQ (A R T Kme2 Q T A Rme2s Kme2 S T G G K A P R K Q) | 0
7 | SGRGKQGGK(Ac)ARAKAKSRSS | 0.00717
8 | PRKQLATKAAR(Me2a″)K(Me3″)[pS]APATGG | 0
9 | A[Arg(Me2s)]T[Lys(Me2)]QTA[Arg(Me2s)][Lys(Me3)]STGGKAPRKQ | 0
10 | PDPAK(Ac)SAPAPKKG[pS]K(Ac)KAVT [H2B 1-19] | 0
11 | [pS]GRGKQGGKARAKAKSRSS | 0
12 | ARTKQTARKSTGGKAPRKQ (A Rme2s T Kme3 Q T A Rme2a Kac S T G G K A P R K Q) | 0.0136
13 | SGRGKGGKGLGKGGAKRHR (S G R G K G G K G L G K G G A Kac R H R) | 0
14 | RRKKKRRKKKRKRKKRK (R Rme2s K Kme1 Kac R Rme2a Kme2 K Kme3 R Kme1 Rme2s K Kac R K) [background 02] | 0.00538
15 | ARTKQTARKSTGGKAPRKQ (A R T K Q T A R Kme3 S pT G G K A P R K Q) | 0
16 | ARTKQTARKSTGGKAPRKQ (A R T Kme1 Q T A Rme2a Kac S T G G K A P R K Q) | 0.0217
17 | ARTKQTARKSTGGKAPRKQ (A R T Kme2 Q T A Rme2a Kac S T G G K A P R K Q) | 0.0228
18 | AR(Me2a)TK(Me)QTAR(Me2s)K(Me3)STGGKAPRKQ | 0.0113
19 | ARTKQTARKSTGGKAPRKQ (A Rme2s T Kme3 Q T A Rme2s Kme1 S T G G K A P R K Q) | 0.00161
20 | A[Arg(Me2a)]T[Lys(Me2)]QTARK(Ac)STGGKAPRKQ | 0
21 | B1 | 1
22 | ART[Lys(Me3)]QTA[Arg(Me2a)][Lys(Me2)]STGGKAPRKQ | 0.000538

Row | Binder | binding score
23 | ARTKQTA[Arg(Me2s)][Lys(Me)][pS]TGGKAPRKQ | 0.00394
24 | ARTKQTARKSTGGKAPRKQ (A R T K Q T A R Kac S pT G G K A P R K Q) | 0
25 | ARTK(Ac)QTAR(Me2a)K(Me2)STGGKAPRKQ | 0.00179
26 | A[Arg(Me2s)]TK(Ac)QTA[Arg(Me2a)][Lys(Me)]STGGKAPRKQ | 0.00161
27 | SGRGKGGKGLGKGGAKRHR (S G Rme2s G K G G Kac G L G K G G A K R H R) | 0
28 | RKSAPATGGVKKPHRYRPG (R K S A P A T G G V Kme1 K P H R Y R P G) [H3 26-45] | 0
29 | PRKQLATKAAR[Lys(Me3)]SAPATGG | 0
30 | ARTK(Ac)QTAR(Me2s″)K(Ac)STGGKAPRKQ | 0.0672
31 | A[Arg(Me2s)]T[Lys(Me)]QTA[Arg(Me2a)][Lys(Me)]STGGKAPRKQ | 0.00126
32 | A[Arg(Me2a)]TK(Ac)QTA[Arg(Me2s)][Lys(Me3)]STGGKAPRKQ | 0.00681
33 | ARTKQTARKSTGGKAPRKQ (A Rme2s T Kac Q T A Rme2a Kac S T G G K A P R K Q) | 0.0545
34 | PRKQLATKAA[Arg(Me2s)][Lys(Me2)]SAPATGG | 0
35 | ARTKQTA[Arg(Me2a)][Lys(Me)]S[pT]GGKAPRKQ | 0
36 | ARTKQTARKSTGGKAPRKQ (A Rme2s T Kme2 Q T A R Kme1 S T G G K A P R K Q) | 0
37 | SGRGKGGKGLGKGGAKRHR (pS G Rme2s G Kac G G Kac G L G K G G A K R H R) | 0.126
38 | ARTKQTARKSTGGKAPRKQ (A R T Kac Q T A Rme2a Kac S T G G K A P R K Q) | 0.0576
39 | ARTKQTARKSTGGKAPRKQ (A R T Kac Q T A Rme2s Kme2 S T G G K A P R K Q) | 0.00251
40 | A[Arg(Me2s)]TK(Me)QTARKSTGGKAPRKQ | 0
41 | ARTKQTARKSTGGKAPRKQ (A Rme2a T Kac Q T A Rme2a Kme2 S T G G K A P R K Q) | 0.00143
42 | A[Arg(Me2a)]T[Lys(Me3)]QTAR[Lys(Me2)]STGGKAPRKQ | 0
43 | A[Arg(Me2a)]T[Lys(Me2)]QTA[Arg(Me2a)][Lys(Me3)]STGGKAPRKQ | 0
44 | PRKQLATKAAR(Me2a″)K(Ac)[pS]APATGG | 0.00143

Target: T2, Bdf1 bromodomain 2 (GST-tagged, WT)
Test: as above

Row | Binder | binding score
45 | ARTKQTARKSTGGKAPRKQ (A R T K Q T A R Kme1 pS T G G K A P R K Q) | 0
46 | ARTKQTARKSTGGKAPRKQ (A R T Kme2 Q T A Rme2a Kme2 S T G G K A P R K Q) | 0.000885
47 | ARTKQTARKSTGGKAPRKQ (A Rme2s T Kme2 Q T A Rme2a Kme3 S T G G K A P R K Q) | 0.00797
48 | SGRGKGGKGLGKGGAKRHR (pS G R G K G G K G L G K G G A K R H R) | 0.00305
49 | ARTKQTARKSTGGKAPRKQ (A Rme2a T Kme3 Q T A Rme2s Kme3 S T G G K A P R K Q) | 0
50 | ARTKQTARKSTGGKAPRKQ (A R T Kme2 Q T A Rme2s Kme2 S T G G K A P R K Q) | 0.00325
51 | SGRGKQGGK(Ac)ARAKAKSRSS | 0.00797
52 | PRKQLATKAAR(Me2a″)K(Me3″)[pS]APATGG | 0
53 | A[Arg(Me2s)]T[Lys(Me2)]QTA[Arg(Me2s)][Lys(Me3)]STGGKAPRKQ | 0
54 | PDPAK(Ac)SAPAPKKG[pS]K(Ac)KAVT [H2B 1-19] | 0.168
55 | [pS]GRGKQGGKARAKAKSRSS | 0.00502
56 | ARTKQTARKSTGGKAPRKQ (A Rme2s T Kme3 Q T A Rme2a Kac S T G G K A P R K Q) | 0.00305
57 | SGRGKGGKGLGKGGAKRHR (S G R G K G G K G L G K G G A Kac R H R) | 0
58 | RRKKKRRKKKRKRKKRK (R Rme2s K Kme1 Kac R Rme2a Kme2 K Kme3 R Kme1 Rme2s K Kac R K) [background 02] | 0.006
59 | ARTKQTARKSTGGKAPRKQ (A R T K Q T A R Kme3 S pT G G K A P R K Q) | 0
60 | ARTKQTARKSTGGKAPRKQ (A R T Kme1 Q T A Rme2a Kac S T G G K A P R K Q) | 0.00915
61 | ARTKQTARKSTGGKAPRKQ (A R T Kme2 Q T A Rme2a Kac S T G G K A P R K Q) | 0.00915
62 | AR(Me2a)TK(Me)QTAR(Me2s)K(Me3)STGGKAPRKQ | 0
63 | ARTKQTARKSTGGKAPRKQ (A Rme2s T Kme3 Q T A Rme2s Kme1 S T G G K A P R K Q) | 0.00187
64 | A[Arg(Me2a)]T[Lys(Me2)]QTARK(Ac)STGGKAPRKQ | 0.00108
65 | B1 | 1
66 | ART[Lys(Me3)]QTA[Arg(Me2a)][Lys(Me2)]STGGKAPRKQ | 0

Row | Binder | binding score
67 | ARTKQTA[Arg(Me2s)][Lys(Me)][pS]TGGKAPRKQ | 0
68 | ARTKQTARKSTGGKAPRKQ (A R T K Q T A R Kac S pT G G K A P R K Q) | 0
69 | ARTK(Ac)QTAR(Me2a)K(Me2)STGGKAPRKQ | 0.00915
70 | A[Arg(Me2s)]TK(Ac)QTA[Arg(Me2a)][Lys(Me)]STGGKAPRKQ | 0.00384
71 | SGRGKGGKGLGKGGAKRHR (S G Rme2s G K G G Kac G L G K G G A K R H R) | 0.0294
72 | RKSAPATGGVKKPHRYRPG (R K S A P A T G G V Kme1 K P H R Y R P G) [H3 26-45] | 0.00364
73 | PRKQLATKAAR[Lys(Me3)]SAPATGG | 0
74 | ARTK(Ac)QTAR(Me2s″)K(Ac)STGGKAPRKQ | 0.00915
75 | A[Arg(Me2s)]T[Lys(Me)]QTA[Arg(Me2a)][Lys(Me)]STGGKAPRKQ | 0
76 | A[Arg(Me2a)]TK(Ac)QTA[Arg(Me2s)][Lys(Me3)]STGGKAPRKQ | 0.00758
77 | ARTKQTARKSTGGKAPRKQ (A Rme2s T Kac Q T A Rme2a Kac S T G G K A P R K Q) | 0.0894
78 | PRKQLATKAA[Arg(Me2s)][Lys(Me2)]SAPATGG | 0
79 | ARTKQTA[Arg(Me2a)][Lys(Me)]S[pT]GGKAPRKQ | 0
80 | ARTKQTARKSTGGKAPRKQ (A Rme2s T Kme2 Q T A R Kme1 S T G G K A P R K Q) | 0.00895
81 | SGRGKGGKGLGKGGAKRHR (pS G Rme2s G Kac G G Kac G L G K G G A K R H R) | 0.299
82 | ARTKQTARKSTGGKAPRKQ (A R T Kac Q T A Rme2a Kac S T G G K A P R K Q) | 0.0821
83 | ARTKQTARKSTGGKAPRKQ (A R T Kac Q T A Rme2s Kme2 S T G G K A P R K Q) | 0.0133
84 | A[Arg(Me2s)]TK(Me)QTARKSTGGKAPRKQ | 0
85 | ARTKQTARKSTGGKAPRKQ (A Rme2a T Kac Q T A Rme2a Kme2 S T G G K A P R K Q) | 0.0105
86 | A[Arg(Me2a)]T[Lys(Me3)]QTAR[Lys(Me2)]STGGKAPRKQ | 0.00443
87 | A[Arg(Me2a)]T[Lys(Me2)]QTA[Arg(Me2a)][Lys(Me3)]STGGKAPRKQ | 0
88 | PRKQLATKAAR(Me2a″)K(Ac)[pS]APATGG | 0
